Results as given in patent US20110118131A1 (published 2011).
Changes are numbered by the printed parent chain. Names and notes keep the numbering of the source.

B1: XPA23 Fab, heavy chain S105N (Fab, V domains shown)
VH: EVQLLESGGGLVQPGGSLRLSCAASGFTFSKYFMFWVRQAPGKGLEWVSVISPSGGMTRYADSVKGRFTISRDNSKNTLYLQMNSLRAEDTAVYYCARVGYGGNNDYWGQGTLVTVSS
VL: DIQMTQSPSSVSASVGDRLTIICRASQDINRWLAWYQQTPGNAPKLLIHSATSLQSGVPSRFSGSGSGTDFTLTINSLQPEDFATYYCQQADSFPLTFGGGTKVEIK
B2: XPA23 Fab, heavy chain T58D (Fab, V domains shown)
VH: B1 VH with T58D, N105S
VL: B1 VL
B3: XPA23 Fab, heavy chain V99F (Fab, V domains shown)
VH: B1 VH with V99F, N105S
VL: B1 VL
B4: XPA23 Fab, heavy chain T28H (Fab, V domains shown)
VH: B1 VH with T28H, N105S
VL: B1 VL
B5: XPA23 Fab, heavy chain V50H (Fab, V domains shown)
VH: B1 VH with V50H, N105S
VL: B1 VL
B6: XPA23 Fab, heavy chain V99E (Fab, V domains shown)
VH: B1 VH with V99E, N105S
VL: B1 VL
B7: XPA23 Fab, heavy chain V50F (Fab, V domains shown)
VH: B1 VH with V50F, N105S
VL: B1 VL
B8: XPA23 Fab, heavy chain V50E (Fab, V domains shown)
VH: B1 VH with V50E, N105S
VL: B1 VL
B9: XPA23 Fab, heavy chain T28W (Fab, V domains shown)
VH: B1 VH with T28W, N105S
VL: B1 VL
B10: XPA23 Fab, heavy chain V50S (Fab, V domains shown)
VH: B1 VH with V50S, N105S
VL: B1 VL
B11: XPA23 Fab, heavy chain V50Q (Fab, V domains shown)
VH: B1 VH with V50Q, N105S
VL: B1 VL
B12: XPA23 Fab, heavy chain T58E (Fab, V domains shown)
VH: B1 VH with T58E, N105S
VL: B1 VL
B13: XPA23 Fab, heavy chain S105W (Fab, V domains shown)
VH: B1 VH with N105W
VL: B1 VL
B14: XPA23 Fab, heavy chain T58S (Fab, V domains shown)
VH: B1 VH with T58S, N105S
VL: B1 VL
B15: XPA23 Fab, heavy chain V50K (Fab, V domains shown)
VH: B1 VH with V50K, N105S
VL: B1 VL
B16: XPA23 Fab, heavy chain V99S (Fab, V domains shown)
VH: B1 VH with V99S, N105S
VL: B1 VL
B17: XPA23 Fab, heavy chain Y32Q (Fab, V domains shown)
VH: B1 VH with Y32Q, N105S
VL: B1 VL
B18: XPA23 Fab, heavy chain V50R (Fab, V domains shown)
VH: B1 VH with V50R, N105S
VL: B1 VL
B19: XPA23 Fab, heavy chain V50D (Fab, V domains shown)
VH: B1 VH with V50D, N105S
VL: B1 VL
B20: XPA23 Fab, heavy chain Y32S (Fab, V domains shown)
VH: B1 VH with Y32S, N105S
VL: B1 VL
B21: XPA23 Fab, heavy chain T58N (Fab, V domains shown)
VH: B1 VH with T58N, N105S
VL: B1 VL
B22: XPA23 Fab, heavy chain S105R (Fab, V domains shown)
VH: B1 VH with N105R
VL: B1 VL
B23: XPA23 Fab, heavy chain Y32F (Fab, V domains shown)
VH: B1 VH with Y32F, N105S
VL: B1 VL
B24: XPA23 Fab, heavy chain Y32H (Fab, V domains shown)
VH: B1 VH with Y32H, N105S
VL: B1 VL
B25: XPA23 Fab, heavy chain T28K (Fab, V domains shown)
VH: B1 VH with T28K, N105S
VL: B1 VL
B26: XPA23 Fab, heavy chain Y32N (Fab, V domains shown)
VH: B1 VH with Y32N, N105S
VL: B1 VL
B27: XPA23 Fab, heavy chain V50W (Fab, V domains shown)
VH: B1 VH with V50W, N105S
VL: B1 VL
B28: XPA23 Fab, heavy chain V50Y (Fab, V domains shown)
VH: B1 VH with V50Y, N105S
VL: B1 VL
B29: XPA23 Fab, heavy chain T58R (Fab, V domains shown)
VH: B1 VH with T58R, N105S
VL: B1 VL
B30: XPA23 Fab, heavy chain T58Q (Fab, V domains shown)
VH: B1 VH with T58Q, N105S
VL: B1 VL
B31: XPA23 Fab, heavy chain S105Q (Fab, V domains shown)
VH: B1 VH with N105Q
VL: B1 VL
B32: XPA23 Fab, heavy chain T58W (Fab, V domains shown)
VH: B1 VH with T58W, N105S
VL: B1 VL
B33: XPA23 Fab, heavy chain V99K (Fab, V domains shown)
VH: B1 VH with V99K, N105S
VL: B1 VL
B34: XPA23 Fab, heavy chain V99N (Fab, V domains shown)
VH: B1 VH with V99N, N105S
VL: B1 VL
B35: XPA23 Fab, heavy chain T28R (Fab, V domains shown)
VH: B1 VH with T28R, N105S
VL: B1 VL
B36: XPA23 Fab, heavy chain T28Q (Fab, V domains shown)
VH: B1 VH with T28Q, N105S
VL: B1 VL
B37: XPA23 Fab, heavy chain T58F (Fab, V domains shown)
VH: B1 VH with T58F, N105S
VL: B1 VL
B38: XPA23 Fab, heavy chain T58K (Fab, V domains shown)
VH: B1 VH with T58K, N105S
VL: B1 VL
B39: XPA23 Fab, heavy chain Y32E (Fab, V domains shown)
VH: B1 VH with Y32E, N105S
VL: B1 VL
B40: XPA23 Fab, heavy chain V99Q (Fab, V domains shown)
VH: B1 VH with V99Q, N105S
VL: B1 VL
B41: XPA23 Fab, heavy chain T58Y (Fab, V domains shown)
VH: B1 VH with T58Y, N105S
VL: B1 VL
B42: XPA23 Fab, heavy chain T28E (Fab, V domains shown)
VH: B1 VH with T28E, N105S
VL: B1 VL
B43: XPA23 Fab, heavy chain T28G (Fab, V domains shown)
VH: B1 VH with T28G, N105S
VL: B1 VL
B44: XPA23 Fab, heavy chain S105Y (Fab, V domains shown)
VH: B1 VH with N105Y
VL: B1 VL
B45: XPA23 Fab, heavy chain T58H (Fab, V domains shown)
VH: B1 VH with T58H, N105S
VL: B1 VL
B46: XPA23 Fab, heavy chain Y32D (Fab, V domains shown)
VH: B1 VH with Y32D, N105S
VL: B1 VL

What follows are binders tested against T1, IL-1beta (UniProt P01584 117-269) (assay: Biacore).
T1 construct: also called IL-1β

fold difference in affinity vs parental [fold] | binding result | Binder
0.85 | – | B1
0.12 | – | B2
0.03 | – | B3
– | no binding | B4
– | no binding | B5
– | no binding | B6
– | no binding | B7
– | no binding | B8
– | no binding | B9
– | no binding | B10
– | no binding | B11
– | no binding | B12
– | no binding | B13
0.82 | – | B14
– | no binding | B15
– | no binding | B16
– | no binding | B17
– | no binding | B18
– | no binding | B19
1.33 | – | B20
0.9 | – | B21
– | no binding | B22
0.75 | – | B23

fold difference in affinity vs parental [fold] | binding result | Binder
0.62 | – | B24
– | no binding | B25
0.04 | – | B26
– | no binding | B27
– | no binding | B28
1.14 | – | B29
– | no binding | B30
0.98 | – | B31
0.93 | – | B32
– | no binding | B33
– | no binding | B34
– | no binding | B35
– | no binding | B36
1.04 | – | B37
– | no binding | B38
0.12 | – | B39
– | no binding | B40
1.01 | – | B41
– | no binding | B42
– | no binding | B43
– | no binding | B44
0.98 | – | B45
0.68 | – | B46
